Experimental data from patent US20210388087A1 (Chugai, published 2021).
Changes are numbered by the printed parent chain. Names and notes keep the numbering of the source. Values belong to the binder of their own block, whether it stands above or below them.

Biological target: T1, Human CD3eg linker (human)
T1 construct: Single chain: epsilon and gamma subunits of human CD3 joined by a 29-mer linker, Flag-tag at the C-terminus; also called recombinant human CD3
T1 chain: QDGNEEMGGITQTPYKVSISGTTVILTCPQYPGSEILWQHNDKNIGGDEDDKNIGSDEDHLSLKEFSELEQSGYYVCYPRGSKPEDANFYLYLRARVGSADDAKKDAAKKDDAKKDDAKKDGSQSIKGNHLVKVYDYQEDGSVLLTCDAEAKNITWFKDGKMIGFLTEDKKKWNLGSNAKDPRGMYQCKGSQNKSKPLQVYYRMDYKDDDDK
Test: Biacore SPR, vs template H183/L072

B1: H183/L072 VH H35L (antibody, name in Kabat numbering, V domains shown)
VH: QVQLVESGGGLVQPGRSLRLSCAASGFTFSNAWMLWVRQAPGKGLEWVAQIKDKGNAYAAYYAPSVKGRFTISRDDSKNSIYLQMNSLKTEDTAVYYCHYVHYASASTVLPAFGVDAWGQGTTVTVSS
VL: DIVMTQSPLSLPVTPGEPASISCQASQELVHMNRNTYLHWYQQKPGQAPRLLIYKVSNRFPGVPDRFSGSGSGTDFTLKISRVEAEDVGVYYCAQGTSVPFTFGQGTKLEIK
fold change of affinity: 0 fold

B2: H183/L072 VH I51L (antibody, name in Kabat numbering, V domains shown)
VH: B1 VH with L35H, I51L
VL: B1 VL
fold change of affinity: 0 fold

B3: H183/L072 VH K52D (antibody, name in Kabat numbering, V domains shown)
VH: B1 VH with L35H, K52D
VL: B1 VL
fold change of affinity: 0 fold

B4: H183/L072 VH H96I (antibody, name in Kabat numbering, V domains shown)
VH: B1 VH with L35H, H102I
VL: B1 VL
fold change of affinity: 0 fold

B6: H183/L072 VH I51A (antibody, name in Kabat numbering, V domains shown)
VH: B1 VH with L35H, I51A
VL: B1 VL
fold change of affinity: 0 fold

B7: H183/L072 VH H35R (antibody, name in Kabat numbering, V domains shown)
VH: B1 VH with L35R
VL: B1 VL
fold change of affinity: 0 fold

B10: H183/L072 VH I51V (antibody, name in Kabat numbering, V domains shown)
VH: B1 VH with L35H, I51V
VL: B1 VL
fold change of affinity: 1.1 fold

B13: H183/L072 VH I51D (antibody, name in Kabat numbering, V domains shown)
VH: B1 VH with L35H, I51D
VL: B1 VL
fold change of affinity: 0 fold

B15: H183/L072 VH H96P (antibody, name in Kabat numbering, V domains shown)
VH: B1 VH with L35H, H102P
VL: B1 VL
fold change of affinity: 0 fold

B16: H183/L072 VH K52E (antibody, name in Kabat numbering, V domains shown)
VH: B1 VH with L35H, K52E
VL: B1 VL
fold change of affinity: 0 fold

B17: H183/L072 VH H35V (antibody, name in Kabat numbering, V domains shown)
VH: B1 VH with L35V
VL: B1 VL
fold change of affinity: 0 fold

B18: H183/L072 VH H35T (antibody, name in Kabat numbering, V domains shown)
VH: B1 VH with L35T
VL: B1 VL
fold change of affinity: 0 fold

B19: H183/L072 VH H93L (antibody, name in Kabat numbering, V domains shown)
VH: B1 VH with L35H, H99L
VL: B1 VL
fold change of affinity: 0 fold

B22: H183/L072 VH I51M (antibody, name in Kabat numbering, V domains shown)
VH: B1 VH with L35H, I51M
VL: B1 VL
fold change of affinity: 0.3 fold

B24: H183/L072 VH I51E (antibody, name in Kabat numbering, V domains shown)
VH: B1 VH with L35H, I51E
VL: B1 VL
fold change of affinity: 0 fold

B25: H183/L072 VH I51N (antibody, name in Kabat numbering, V domains shown)
VH: B1 VH with L35H, I51N
VL: B1 VL
fold change of affinity: 0 fold

B26: H183/L072 VH I51W (antibody, name in Kabat numbering, V domains shown)
VH: B1 VH with L35H, I51W
VL: B1 VL
fold change of affinity: 0 fold

B28: H183/L072 VH I51S (antibody, name in Kabat numbering, V domains shown)
VH: B1 VH with L35H, I51S
VL: B1 VL
fold change of affinity: 0.4 fold

B29: H183/L072 VH K52H (antibody, name in Kabat numbering, V domains shown)
VH: B1 VH with L35H, K52H
VL: B1 VL
fold change of affinity: 0 fold

B31: H183/L072 VH H96A (antibody, name in Kabat numbering, V domains shown)
VH: B1 VH with L35H, H102A
VL: B1 VL
fold change of affinity: 0.3 fold

B32: H183/L072 VH H35Y (antibody, name in Kabat numbering, V domains shown)
VH: B1 VH with L35Y
VL: B1 VL
fold change of affinity: 0 fold

B33: H183/L072 VH I51F (antibody, name in Kabat numbering, V domains shown)
VH: B1 VH with L35H, I51F
VL: B1 VL
fold change of affinity: 0 fold

B34: H183/L072 VH I51G (antibody, name in Kabat numbering, V domains shown)
VH: B1 VH with L35H, I51G
VL: B1 VL
fold change of affinity: 0 fold

B35: H183/L072 VH H93P (antibody, name in Kabat numbering, V domains shown)
VH: B1 VH with L35H, H99P
VL: B1 VL
fold change of affinity: 0 fold

B37: H183/L072 VH H96M (antibody, name in Kabat numbering, V domains shown)
VH: B1 VH with L35H, H102M
VL: B1 VL
fold change of affinity: 0.1 fold

B39: H183/L072 VH I51H (antibody, name in Kabat numbering, V domains shown)
VH: B1 VH with L35H, I51H
VL: B1 VL
fold change of affinity: 0 fold

B42: H183/L072 VH H35Q (antibody, name in Kabat numbering, V domains shown)
VH: B1 VH with L35Q
VL: B1 VL
fold change of affinity: 0 fold

B43: H183/L072 VH I51R (antibody, name in Kabat numbering, V domains shown)
VH: B1 VH with L35H, I51R
VL: B1 VL
fold change of affinity: 0 fold

B44: H183/L072 VH K52F (antibody, name in Kabat numbering, V domains shown)
VH: B1 VH with L35H, K52F
VL: B1 VL
fold change of affinity: 0 fold

The next lines start with the values.

fold change of affinity: 1 fold
B5: H183/L072 VH I51K (antibody, name in Kabat numbering, V domains shown)
VH: B1 VH with L35H, I51K
VL: B1 VL

fold change of affinity: 0 fold
B8: H183/L072 VH H35M (antibody, name in Kabat numbering, V domains shown)
VH: B1 VH with L35M
VL: B1 VL

fold change of affinity: 0 fold
B9: H183/L072 VH K52A (antibody, name in Kabat numbering, V domains shown)
VH: B1 VH with L35H, K52A
VL: B1 VL

fold change of affinity: 0 fold
B11: H183/L072 VH I51Q (antibody, name in Kabat numbering, V domains shown)
VH: B1 VH with L35H, I51Q
VL: B1 VL

fold change of affinity: 0 fold
B12: H183/L072 VH H93A (antibody, name in Kabat numbering, V domains shown)
VH: B1 VH with L35H, H99A
VL: B1 VL

fold change of affinity: 0 fold
B14: H183/L072 VH H93M (antibody, name in Kabat numbering, V domains shown)
VH: B1 VH with L35H, H99M
VL: B1 VL

fold change of affinity: 0 fold
B20: H183/L072 VH K52G (antibody, name in Kabat numbering, V domains shown)
VH: B1 VH with L35H, K52G
VL: B1 VL

fold change of affinity: 0 fold
B21: H183/L072 VH I51P (antibody, name in Kabat numbering, V domains shown)
VH: B1 VH with L35H, I51P
VL: B1 VL

fold change of affinity: 0 fold
B23: H183/L072 VH I51Y (antibody, name in Kabat numbering, V domains shown)
VH: B1 VH with L35H, I51Y
VL: B1 VL

fold change of affinity: 0.5 fold
B27: H183/L072 VH H35S (antibody, name in Kabat numbering, V domains shown)
VH: B1 VH with L35S
VL: B1 VL

fold change of affinity: 0 fold
B30: H183/L072 VH H35P (antibody, name in Kabat numbering, V domains shown)
VH: B1 VH with L35P
VL: B1 VL

fold change of affinity: 0.2 fold
B36: H183/L072 VH I51T (antibody, name in Kabat numbering, V domains shown)
VH: B1 VH with L35H, I51T
VL: B1 VL

fold change of affinity: 0 fold
B38: H183/L072 VH H93I (antibody, name in Kabat numbering, V domains shown)
VH: B1 VH with L35H, H99I
VL: B1 VL

fold change of affinity: 0 fold
B40: H183/L072 VH H35W (antibody, name in Kabat numbering, V domains shown)
VH: B1 VH with L35W
VL: B1 VL

fold change of affinity: 0 fold
B41: H183/L072 VH H96L (antibody, name in Kabat numbering, V domains shown)
VH: B1 VH with L35H, H102L
VL: B1 VL

fold change of affinity: 0 fold
B45: H183/L072 VH H35N (antibody, name in Kabat numbering, V domains shown)
VH: B1 VH with L35N
VL: B1 VL
